Results on seven molecules are retold here after patent publication US20210147523A1 (TEIJIN PHARMA, published 2021).

In assay [1] the target is T1, human SPNS2 (human, UniProt Q8IVW8 1-549).
T1 construct: S1P transporter; in Cell ELISA and S1P assays on Flp-in 293 cells that also express human SphK1; also called Spinster homolog 2; native type
T1 sequence: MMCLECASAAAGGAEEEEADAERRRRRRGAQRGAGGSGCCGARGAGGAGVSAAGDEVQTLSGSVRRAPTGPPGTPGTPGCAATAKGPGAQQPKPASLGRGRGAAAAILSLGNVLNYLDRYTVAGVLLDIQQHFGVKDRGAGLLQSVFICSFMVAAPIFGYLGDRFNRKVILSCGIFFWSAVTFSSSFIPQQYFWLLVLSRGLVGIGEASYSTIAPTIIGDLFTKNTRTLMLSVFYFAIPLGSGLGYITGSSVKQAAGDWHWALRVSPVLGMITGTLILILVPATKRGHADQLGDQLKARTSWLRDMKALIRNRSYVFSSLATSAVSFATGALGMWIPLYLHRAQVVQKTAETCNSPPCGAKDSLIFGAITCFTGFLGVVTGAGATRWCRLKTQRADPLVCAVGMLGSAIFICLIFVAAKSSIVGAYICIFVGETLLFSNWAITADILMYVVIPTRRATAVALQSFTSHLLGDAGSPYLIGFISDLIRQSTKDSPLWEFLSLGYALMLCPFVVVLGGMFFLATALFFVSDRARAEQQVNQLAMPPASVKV
In words: Cell ELISA. As to the method:
(§1) Human and mouse SPNS2 and human SphK1 double stable expression Flp-in 293 cells were added to a poly D lysine coat 96-well plate (Corning, 356461) in a density of 1×10⁵ cells/well and was cultivated overnight, and then the culture medium was removed. An anti-SPNS2 antibody solution was adjusted into 20 μg/mL using 0.2% FBS/3% BSA/PBS, and 0.2% FBS/3% BSA/PBS (60 μL) was added to the antibody diluted solution (20 μL) to prepare seven-step diluted solutions by four fold serial dilution. Each diluted solution of the anti-SPNS2 antibody was added in a volume of 30 μL/well, and reacted for about one hour at room temperature. The antibody solution was removed, and the residue was washed with PBS containing 0.05% Tween 20 (PBS-T) two times, and fixed for about ten minutes at room temperature using 10% buffered formalin (Mildform (Trade mark) 10NM, Wako). After washing with PBS-T one time, a 5000-fold diluted solution of anti-rat IgG antibody HRP conjugate (Southern Biotech, 3030-05) in 0.2% FBS/3% BSA/PBS was added to each well (30 μL), and reacted for about one hour at room temperature. After washing with PBS-T four times, a substrate (TMB; 3, 3′, 5, 5′-tetramethylbenzidin) was added to each well (100 μL) to initiate the reaction. After 20 minutes, 2N sulfuric acid was added to each well (100 μL), and absorbance at 450 nm and 550 nm was measured. […] Each antibody bound to human SPNS2 and mouse SPNS2.
(An ELISA detects its analyte on a solid surface through an enzyme-linked reagent.)

Assay [2] addresses T2, mouse SPNS2 (mouse, UniProt Q91VM4 1-549).
T2 construct: on Flp-in 293 cells that also express human SphK1
T2 sequence: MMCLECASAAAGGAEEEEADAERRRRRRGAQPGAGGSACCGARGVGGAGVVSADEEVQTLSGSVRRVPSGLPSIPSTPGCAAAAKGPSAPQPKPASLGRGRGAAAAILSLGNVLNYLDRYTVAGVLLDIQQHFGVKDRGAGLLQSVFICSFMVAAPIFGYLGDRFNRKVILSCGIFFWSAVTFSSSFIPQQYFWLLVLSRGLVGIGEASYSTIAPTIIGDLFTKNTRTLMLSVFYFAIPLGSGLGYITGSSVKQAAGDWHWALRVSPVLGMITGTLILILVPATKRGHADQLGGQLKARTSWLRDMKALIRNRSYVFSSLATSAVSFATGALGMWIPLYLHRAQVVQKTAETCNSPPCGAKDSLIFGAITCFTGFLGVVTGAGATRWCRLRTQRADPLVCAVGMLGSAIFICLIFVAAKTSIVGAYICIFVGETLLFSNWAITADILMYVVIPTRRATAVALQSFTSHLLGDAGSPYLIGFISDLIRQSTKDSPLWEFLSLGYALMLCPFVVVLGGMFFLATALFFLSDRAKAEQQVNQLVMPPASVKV
In words: Cell ELISA. Here is the method: as §1

Assay [3] concerns the target T1, human SPNS2. In words: cell-based or functional assay.
Assay [4] addresses T2, mouse SPNS2. As to the kind of experiment: cell-based or functional assay.
Assay [5] concerns the target T3, Mutant 4 of human SPNS2 (FLAG tag inserted in extracellular loop 11) (human, UniProt Q8IVW8 1-549).
T3 construct: on HEK293 cells; also called extracellular loop 11 mutant
T3 sequence: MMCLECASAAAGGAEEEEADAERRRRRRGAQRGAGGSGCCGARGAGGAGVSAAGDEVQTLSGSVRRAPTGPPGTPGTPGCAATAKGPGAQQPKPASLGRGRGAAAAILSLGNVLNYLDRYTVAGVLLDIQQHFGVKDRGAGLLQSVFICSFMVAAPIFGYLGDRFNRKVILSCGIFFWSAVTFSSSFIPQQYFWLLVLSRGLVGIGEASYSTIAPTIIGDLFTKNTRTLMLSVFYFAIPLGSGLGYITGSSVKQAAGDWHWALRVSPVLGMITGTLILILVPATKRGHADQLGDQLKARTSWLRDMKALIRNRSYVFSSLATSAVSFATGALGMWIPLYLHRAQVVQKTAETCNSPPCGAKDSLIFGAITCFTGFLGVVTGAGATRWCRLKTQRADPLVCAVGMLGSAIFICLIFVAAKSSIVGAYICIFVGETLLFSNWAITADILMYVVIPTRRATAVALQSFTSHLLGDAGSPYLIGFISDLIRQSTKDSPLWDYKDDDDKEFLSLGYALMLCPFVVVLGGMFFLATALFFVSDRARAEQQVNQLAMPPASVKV
As to the kind of experiment: flow cytometry, FLAG-insertion mutant. Here is the method: After the lipofection, the HEK 293 cells cultivated overnight were recovered from the culture dishes, and reacted with a cell staining buffer (BioLegend, 420201) containing an anti-FLAG antibody (Sigma-Aldrich, F1804) and an anti-SPNS2 antibody each in a volume of 20 μg/mL for 30 minutes at room temperature. After washing with a cell staining buffer one time, the anti-FLAG antibody was detected with an anti-mouse IgG-Alexa 647 conjugate antibody, and the anti-SPNS2 antibody was detected with an anti-rat IgG-FITC conjugate antibody with flow cytometer BD LSR Fortessa (Becton Dickinson). The binding ability to each mutant was evaluated with the ratio of the FITC-positive cell rate to the Alexa 647-positive cell rate. In Table 7, symbol (+) indicates a ratio of less than 0.1, symbol (±) indicates a ratio of 0.1 or more and less than 0.5, and symbol (−) indicate a ratio of 0.5 or more.
A general note: In flow cytometry, cells or beads pass a laser one at a time.

A value given as a limit tells only on which side of the number the result lay.

B1: 65-0810G (antibody, IgG2b, V domains shown)
VH: EVHLVESGGGLVQPGRSMKLSCTASGFTFNNYYMAWVRQAPTKGLEWVASISTGGGYTYYRDSVKGRFTISRDNTGNTLYLQMDSLRSEDTATYYCARCWELPYWGQGVMVTVSS
VL: QFVLTQPNSVSTNLGSTVKLSCRRSSGNIGNNYVNWYRQHEGRSPTTMIYRDDTRPDGVPNRFSGSIDRSSNSALLTINNVRPEDEAYYFCQSYSGSIYIFGGGTKLTVL
With B1, the Emax was 1.7 absorbance in assay [1] and 1.54 absorbance in assay [2]. Further, the pEC50 in assay [1] is 8.36 pEC50 (M); in assay [2], 8.15 pEC50 (M). The “pIC50, S1P transport inhibition (S1PR3 Ca2+ FLIPR bioassay)” value (shortened to “pIC50, S1P transport inhibition”) in assay [3] is 7.2 pIC50 (M); in assay [4], 7.6 pIC50 (M). Besides, the “FITC+/Alexa 647+ cell rate ratio” value in assay [5] is ≥ 0.5 ratio.

B2: 80-1104A (antibody, IgG2b, V domains shown)
VH: EVQLVETGGGLVQPGSSLKLSCSTSGFTFSETWMSWVRQAPGKGLEWVGLIKDKNSNYEANYAESVKGRFTISRDDSKRRVYLQMYTLRDQDTATYYCTSHEDFYYYSSYYFDYWGQGVMVTVSS
VL: DIVLTQSPATLSVTPGESVSLSCRASQGISTSIHWYQQKSNESPRLLIKYASQSMSGIPSRFSGSGSGTDFTLRINRVESEDFSVYYCQQSYNLPLTFGSGTKLEIKR
Turning to B2, the Emax in assay [1] amounted to 1.83 absorbance; in assay [2], 1.61 absorbance. The pEC50 in assay [1] is 8.47 pEC50 (M); in assay [2], 8.32 pEC50 (M). Moreover, the “pIC50, S1P transport inhibition” value in assay [3] is 7.5 pIC50 (M); in assay [4] it was 7.8 pIC50 (M). Also, the “FITC+/Alexa 647+ cell rate ratio” value in assay [5] is ≥ 0.5 ratio.

B3: 96-1403F (antibody, IgG2b, V domains shown)
VH: EVQLVETGGGLVRPGSSLKLSCATSGFTFSDTWMSWVRQAPGKGLEWVALIKDKNSNSEANYAESIKGRFTISRDDSKSRVYLQMNTLRDQDTATYYCTRHEDFYYYSGYYFDYWGQGVMVTVSS
VL: DIVLTQSPPTLSVTPGESVSLSCRASQGISTSIHWYQQRSNESPRLLIKYASQSIAGIPSRFSGSGSGTDFILSINRVESEDFSVYYCQQTYSLPLTFGPGTKLEVKR
B3: the Emax in assay [1] was 1.86 absorbance; in assay [2], 1.78 absorbance. Further, the results for the pEC50 in assay [1] and in assay [2] were 7.76 pEC50 (M) and 7.42 pEC50 (M), respectively. Also, the figures for the “pIC50, S1P transport inhibition” value in assay [3] and in assay [4] were 6.9 pIC50 (M) and 7.3 pIC50 (M), respectively. For the same molecule, in assay [5], the “FITC+/Alexa 647+ cell rate ratio” value was ≥ 0.5 ratio.

B4: 93-1310F (antibody, IgG2b, V domains shown)
VH: EVQLVETGGGLVQPGSSLKLSCATSGFTFSDTWMSWVRQAPGKGLEWVALIKDKNSNYEANYAESVKGRFTISRDDSKRRVYLQMFTLRDQDTATYYCTSHEDFYYYSSYYFDYWGHGVMVTVSS
VL: DIVLTQSPATLSVTPGESVSLSCRASQGISTSIHWYQQKSNGSPRLLIKYASQSISGIPSRFSGSGSGTDFTLRINRVESEDFSVYYCQQTYSLPLTFGSGTRLEIKR
Consider B4, for which the values for the Emax in assay [1] and in assay [2] were 1.64 absorbance and 1.61 absorbance, respectively. The pEC50 was 8.56 pEC50 (M) in assay [1] and 8.29 pEC50 (M) in assay [2]. In addition, the figures for the “pIC50, S1P transport inhibition” value in assay [3] and in assay [4] were 7.6 pIC50 (M) and 7.9 pIC50 (M), respectively. The “FITC+/Alexa 647+ cell rate ratio” value in assay [5] is ≥ 0.5 ratio.

B5: 94-1311E (antibody, V domains shown)
VH: EVQLQQSGAGLVRPRTSVRLSCKISGDSITAYYVHFVKQRPGQGLEWIGRIDPEDDSTKYSEKFKNKATLTADVSSSTAYLILSSLTSDDSATYFCSTLTGLDYWGQGVMVTVSS
VL: DIQMTQSPPVLSASVGDRVTLSCKASQSVHNKLDWYQQKHGEAPKLLIYYTHNLQTGIPSRFSGSGSGSDYTLTISSLRAEDVATYYCFQYYSGWTFGGGTKLEMKR
For the molecule B5, the Emax was found to be 1.61 absorbance in assay [1] and 1.52 absorbance in assay [2]. The pEC50 was 8.34 pEC50 (M) in assay [1] and 8.2 pEC50 (M) in assay [2]. Also, the “pIC50, S1P transport inhibition” value was 7.8 pIC50 (M) in assay [3] and 8.1 pIC50 (M) in assay [4]. Moreover, the “FITC+/Alexa 647+ cell rate ratio” value in assay [5] was ≥ 0.5 ratio.

B6: 84-1111F (antibody, IgG2b, V domains shown)
VH: EVQVVESGGGLVQPGRSMKLSCAALGFTFRDYYMAWVRQTPTKGLEWVAAISTGGGNTYYRDSVKGRFTISRDNAKSTLYLKMDSLRSDDTATYYCARNPYGNYFDYWGQGVMVTVSS
VL: QFVLSQPNSVSTNLGSTVKLSCKRSTGNIGSNYVHWYQRHEGRSPTTMIYRDDKRPNGVPDRFSGSIDRSSNSALLTINNVQTEDEADYFCQSYSGGMYLFGGGTTLTVL
Turning to B6, the Emax in assay [1] is 1.68 absorbance; in assay [2] it was 1.55 absorbance. For the same molecule, the values for the pEC50 in assay [1] and in assay [2] were 8.75 pEC50 (M) and 8.65 pEC50 (M), respectively. For the same molecule, the “pIC50, S1P transport inhibition” value is 7.7 pIC50 (M) in assay [3] and 8.3 pIC50 (M) in assay [4]. Besides, the “FITC+/Alexa 647+ cell rate ratio” value in assay [5] is ≥ 0.5 ratio.

B7: 83-1110B (antibody, IgG2b, V domains shown)
VH: EVQLQQSGPEFVRPGTSVKFSCKVSGGSITSYFIHFVKQRPGQGLEWIGKIDPEDDSTKYGEKFKNKATLTADTSSNTAFLKLSSLTSEDTAIYFCTTLTGLDYWGQGVMVTVSS
VL: DIQMTQSPPVLSAAVGDRVTLSCKASRSLNKNLDWYQQKHGETPKLLIYHTHNLQTGIPSRFSGSGSDTDYTLTISSLQTEDVATYYCYQYHSGWTFGGGTRLELRR
Turning to B7, the figures for the Emax in assay [1] and in assay [2] were 1.6 absorbance and 1.59 absorbance, respectively. Also, the pEC50 was 8.32 pEC50 (M) in assay [1] and 8.17 pEC50 (M) in assay [2]. Further, the figures for the “pIC50, S1P transport inhibition” value in assay [3] and in assay [4] were 7.6 pIC50 (M) and 8 pIC50 (M), respectively. The “FITC+/Alexa 647+ cell rate ratio” value in assay [5] is ≥ 0.5 ratio.
